Assay results from the DeepSol protein solubility set.

assay: soluble on expression in E. coli; label from the status in PepcDB or PDB records

Soluble on expression in E. coli, not soluble:
MGSDKIHHHHHHMSDDTIDRFFGYLNWLFNPFHGLKTTEVYDLIGTSSLTENALYLNLGYWRKADTIDEASEALALLVAKRGGMGPGDIVLDCGYGFGDQDILWARQLKPEKIIGLNITSSQVERARKRVADAGLEQSIDLREGSATAMPIENESIDLVVSVESAFHYRTREAFFREAFRVLRPGGRLVTADIVPTENSGNPFRRMEQWFSWNLVAGKFNIPQENYYLIPSYQNKLTKAGFVQIDIKSIRDDVYEPLHAYLAKNRTFFAKMHPLARIMAQLTLNRSAESVYAGLDYILSYAEKP
MGSDKIHHHHHHMSDKHYDALPKAHTTYANIVKSLLPIGNNGKISRDELPQATYFVDDLHIDQNNLNDYRKICGFADNGNVPITYFSVLSQALQMNMMVKEPFPFAMLGLVHVDNSVTQYRAIGEIETVAMSVMFDNLRDHAQGQQFDFVTTVKSADEIIWEGTSTYLSRSKKPATSKDKKSTPRPVTVKPSINKEGVHSIFEVPEDIGRRYAFVSGDFNLIHLHPLSARAFGFPKAIAHGMWSKAKCLAMMGELPDACTVEVSFKLPIFLPSEVELITDPLAQLSSTEDTCQFGLFSAKNDKPHLAGVIALRDENK
MGSDKIHHHHHHMSDLKVLVIGYMHPRNDKRVFRTVQALSKRSEVIYQYWTEKEELPFKENNIRYIPVKCSNRGNIFQKAVKRKQVDEKIRHLVETEDYDILYMHHFPATKPLKPFVVAKKRGKKIVYDIHEYHPQNFLSTLPRPLSDLKGFVMWRIFKKQLQLSDLCIFVSEETRNDVVAKTGLDPEKTFIVPNYASMKIEPDPDKKKMEIVLVGKTPRNLIHEKKLIRALVERGFSFRIIGMDSEAFSDVPHTYTSFLPYEKMMEELSKSMFSLISYKPTGKEDKNYLYSLPHKFYDSIAAGTPVIVKNSFVSMAKMVEDLGIGVVIDPANVEESLKRIENACQRYEEILENIRRHQEGFVWDEKKEEEFLERVMG
MGSDKIHHHHHHMSDRKEDLERQINLTFAFLSANSYSRKFLTQVWIRDNVGDYKGLTDTAFRKKLQRDLAYLRRVGVPIEQFTVTSGIAEGQQAYRLAQDSYKLPEVEFTPDEAAVLGMAGEMGHNQELGAFARSGWTKLAAGGAQRDLSTSTALTNAGDLGSLSAKTLDAIIKARQLGKQISFEYRRAPKDAPSLRHMDPWGLVPERDRIYLVGFDLDRQEARTFRITRVRNINLGADATHPMPAGTNLQDMVRAQLRRKSVLIDATLRITPGRAVELRAAGVETSDGAWFLEDVDRDWLVRTAAAHAPEALVIEPKDVIDDVIALLRKVENEVV
MGSDKIHHHHHHMSDRLPPLTALRAFDAAARHMSFAKAADELSVTPAALSFQIKSLEEHLGAPLFRRLNRAVELTEAGAALAPGVDEGFQALSAAWRQARRVLDTTSLTVTAGPALTAKWLAPRLYEFARSHPDIDLRLSAGLKMVDLRRDHVDVAIRFGYSVDDYLVAQAARPEWLTPVMTPELCAKYPTPQSLRDAPLIYDDSIGFLSPSCDWPTWFRAMGLEFTPGHGTHFSHADHAIDAACAGLGVALGRRPMIIKDVQEGRLVAPFKVAIETDAKFHFLCLPSSQDRPQIRAFREWFFSEIEKTAHMWDDFTIIPVKDL
MGSDKIHHHHHHMSDSEKEILKRIKDNPFISQRELAEAIGLSRPSVANIISGLIQKEYVMGKAYVLNEDYPIVCIGAANVDRKFYVHKDLVAETSNPVTSTRSIGGVARNIAENLGRLGETVAFLSASGQDSEWEMIKRLSTPFMNLDHVQQFENASTGSYTALISKEGDMTYGLADMEVFDYITPEFLIKRSHLLKKAKCIIVDLNLGKEALNFLCAYTTKHQIKLVITTVSSPKMKNMPDSLHAIDWIITNKDETETYLNLKIESTDDLKIAAKRWNDLGVKNVIVTNGVKELIYRSGEEEIIKSVMPSNSVKDVTGAGDSFCAAVVYSWLNGMSTEDILIAGMVNAKKTIETKYTVRQNLDQQQLYHDMEDYKNGKFTKVY
MGSDKIHHHHHHMSDVMNNSQIATQDNNLINELKTLIASAKQQAQVQVNAQMTLLYWQLGHRLQEHLLSNQRADYAKQIVKQVAQQLTYEYGKGFNEKSLRKMMQFYQAFPQQEIVSTLSRQLSWSHFVELLPIKAPVAREFYLQMAINDRWSVRTLRNRIDSMLFERTAVSKKPDELIKLELAQLENKQLSANMILKDPYMLDFLGVQDHYFEKDLEDAILRDLQQFLLELGSGFSFIGRQHRVQIGYYDFYIDLLFYNRKLKRLVAIDLKLGNFKAAYKGQMELYLRYLAKYEQEADERPPLGIILCASKDQEQVELLELDKSGIHVAEYLTALPPKEVLQQKLHQAISQNQQRFLAVNALDKDAGIASDAEEK
MGSDKIHHHHHHMSEAFLRFDGISVEFPGVKALDEVSFSARAGEVHALMGENGAGKSTLLKVLSGVNRPSSGQLWIDGQAHVFANAREALAHGIAIIYQELTLSPNLSVAENLLLGQLPERRGFIDRRTMKARAREILEELGEGDIDPATKVRELSIGQQQMIEIGRALLRDARIIAFDEPTSSLSVQETRQLKRIVARLRDEGRVVLYVTHRMEEVFEMCDAVTVFRDGRHIRTHETLEGLDHDMLVGEMVGRQIDDVYGFRPRDIGDVLMRIDGLQGRGVNEPVNLEVRRGEVLGLFGLVGAGRSELMRLVCGVEKASRGQVALRGETRVFASPHQAIRAGIAMCPEDRKSQGIFPVASVSDNLNISCRRFFRRWGMFRHAARETDNAKTYIQRLSIKTPSHRTPINTLSGGNQQKVILGRWLAEEIDLFVMDEPTRGIDVGARRDIYALLYDLAEQGKGVIVISSDLAEVSSICDRIGVMRDGVLVDIVPREQATQARLLGLALPA
MGSDKIHHHHHHMSEDILPITISLAGEKDTIRLGEDLALALKPGDCLTLIGDLGAGKSTLARAFIRAMADEPDLEVPSPTFTIIQTYTTRIPVAHLDLYRLSDVSELDELGIDEMLEDGICLIEWPDIAAEVLPPAQTITLQLTHSGEGRVAVIEAPAQQKARLDRVFAIREFLAKNGRGDATRRFLSGDASTRAYETISTDGPDLILMDWRRPMRGAIVADGKTYAEIVHLAQDARSFVAIGDYLRNSGFRAPEILAADIDQGILLLEDLGREGVLAADGTPIEERYLQSVACLATLHQTPRPALLPMRDGSTYDIPSFDRQAMKIEVSLLVEWYLPHKRGKALTDGEKQDYYAIWDGLIDALAGCETGLLLRDFHSPNILWQAQNSGIGQVGLIDFQDAMIGPTAYDLASIVQDARVTIPPELQTRLMSHYLNSRKATPAFDEAAFLKAFAIMSAQRNCKLAGIWVRLLERDKKPGYMKHMPRTFRYLADALSHPELAPLREWCVRMGMDFND
MGSDKIHHHHHHMSESAESVDLIKLPVSKLTLGMFVSAIDKNDQGRLAIANAGQIKHKDAILKLTKNGIKYVWVDTERSAEHCGFKRKVSNDSQVKKSIVTREKQQEQAQVILTEAKDLIRKVLSETFEGKAIEVAPFEALADSMIESVLLDEDALKCMSALRTKDAYLLEHSVNVAFLLVTFGKYLKLDRSMLREMAVGGILHDIGKIKVDNKVLHKPGKLTPEEFEHMKLHQVYALEIMSETKGLSQISKDVCLMHHEKLDGRGYPRGLKGDEIPLHGRMSCIVDIFDALTATRCYKEAMSPAAAFKILLSLTPFHLDQQLVYDFIRCIGVYPVGSLVELSDGRVGIVWASKDRDALHPIVKCFYSLKAKRYTEVVIVDLLKSELHIERGVSPSSLDIDPTPFY
MGSDKIHHHHHHMSESDGQSTPQDTREVIMEATFRALSKHGYKDLRVRDIGEEMEMSRQVIHYHFDGKYDLISSFLEYIIDQYEGSVEVDDETDPRTELDVRIDRCLFGPEFDDFSHWDRMKVYHELYAYAQNDDEHRALFNEHYDRLRKSISTVIEDGVEQGTFLDVDAELMGQLITDVIHAARGRRIALGHEDAPDEAKRAVNDFILDSLYPPQ
MGSDKIHHHHHHMSESWVAVTGATGFIGNALLQSLIKEGWKVRALTRRARVDDESTQWIEGDLHDRDALRKLVTGVSAVVHCAGQVRGSSLESFVRTNVEGTANLMQASLEQNPPPRFLLVSSLAARQPELSWYATSKHMAERLIDERSAGMACAIFRPTAVYGPGDKEMSPLFRITRRGILPMVGQPEMRFGLLHVADLVAAITCWLSTAVPVQGTYELDDGMPGGYDSQAVATIAQEVWKRPVRCVFFPAPLVSLIANINLWSARMLSYSPMLTPGKVRELRHPDWVCDIDPLTRALPGWRPCIHLRDALPQAV
MGSDKIHHHHHHMSETSDTIREAFTESAWIPSPKEVFGPDGSLTEEVGEENKSLIWTLLKQIRPGMDLSKVVLPTFILEPRSFLEKLADYYYHADLISEAVAEPDPFQRIVKVTKFFLSGFYKKPKGLKKPYNPILGETFRCKWEHPDGSTTFYMAEQVSHHPPVSSLFITNRKAGFNISGTILAKSKYYGNSLSAILAGKLRLTLLNLGETYIVNLPYANCKGIMIGTMTMELGGEVNIECEKTGYRTTLDFKLKPMLGGAYNQIEGSIKYGSDRLASIEGAWDGVIRIKGPDGKKELWNPTPEVIKTRLPRYEINMDEQGEWESAKLWRHVTEAISNEDQYKATEEKTALENDQRARAKSGIPHETKFFKKQHGDDYVYIHADYRPWDNNNDIQQIENNYVVKTISRHSKRKTGNSEQLGSDNTSEASESDEE
MGSDKIHHHHHHMSEVLKRRMRCAVYTRKSTDEGLDQEYNSIDAQRDAGHAYIASQRAEGWIPVADDYDDPAFSGGNMERPALQRMMADIEAGKIDVVVIYKIDRLTRSLADFSKMVEVFERYAVSFVSVTQQFNTTTSMGRLMLNILLSFAQFEREVTGERIRDKISASKRKGMWMGGVPPLGYDVENRRLVPNEREAKLIRHIFQRFVELGSSTALVKELKLDGVTSKAWTTQDGKTRDGRLIDKGHIYKLLSNRTYLGELRHKDQWYQAEHPPIINRELWDSVHAILETNGRVRGNTTRAKVPYLLKGIVFGNDGRALSPWHTTKKNGRRYRYYVPQRDAKEHAGASGLPRLPAAELESAVLDQLRAILRAPNLLGEMLPQAIKLDPTLDEAKITVAMTRLDAIWDQLFPAEQTRIVKLLVEKVIVSPNDLEVRLRANGIERLVLELRPEPVEQQEVARA
MGSDKIHHHHHHMSEWDKNRWKEGRSSEYTWKGVVFMAKIMKQFLKGNDLSLSIQEIFKNELIPCTVRHLPKGEILWHDKEPHPYSYFIINGIIKLHVVTKEGREKALFYYTNGSLLGFQNLAKEKRTITTATAILPTSLYACEFSLLYTFVMNNPQYFAAFTSYIFHHMAVEAEEIVNISLYNTAERLAALLVLLAEEFPQNEQGYIEIPFNNEELATMVGACRNSVFNALSVFQKQKLIHKGRGRLVIADLPRLKEYV
MGSDKIHHHHHHMSFDAMNTTLSLNTSAGSQALTVRDPWALVPSLGDLNAYIAAVNRLPMLTLEEEQSLGQRLRDEHDLEAAGRLVLSHLRLVVSVSRQYLGYGLPHGDLIQEGNVGLMKAVKRFDPSQGVRLVSYALHWIKAEIHEYVLRNWRMVKLATTKAQRKLFFNLRSMKQGFKGDATDSDLHRSTLTDAEIDIVASELKVKREEVIEMETRLSGGDVALDPQTDDGDESYAPIAYLADDRHEPTRVLDAQRRDALAGDGIGEALDVLDARSRRIVEERWLKVNDNGSGGMTLHELAAEYGVSAERIRQIEVAAMKKMRKALAAYA
MGSDKIHHHHHHMSFKKSELLNVLDMAFKKEFGKGLSLISPQWGLIAMKISSSTKTNTYGWLGFFPKMREWVGERQIKKMQAQAMSIENKTFESTVSISRTDIEDDQAGLFAPVVQQAGQSAAELPDDLVFSLLAKGKSTLCYDGQNFFDTDHPVYENVDGTGSHKEQSNLTTGSASEHPTFYILDDTNAIKPFIWQERSAPEIETKFDPSRSDKVFMEDVYLWGVRARGNAGFGFWQLIHCVEETELTADAVMKVLAQMRMLKGDGGKLLNIRPSTILVPPALEFKARQLFEAEIINGSTNPLKGVLKVAVSAQIATA
